Measurements as given in patent US20050202430A1 (Novartis, published 2005).

Target: T1, alpha9 integrin on transfected SW480 colon carcinoma cells (UniProt Q13797 30-1035; P05556 21-798)
T1 construct: whole, on cells; also called α9 integrin; alpha9 beta1 integrin
Assay: adhesion of transfected SW480 cells to wells coated with tenascin-W
Source text: IDG tripeptide motifs have been reported to be the recognition sequence for alpha9 beta1 integrin (Yokosaki et al., 1998). Since mouse tenascin-W contains three IDG motifs we investigated whether α9 integrin could be the receptor for tenascin-W. We plated SW480 colon carcinoma cells transfected either with an empty vector or with the vector containing the cDNA for α9 integrin (Yokosaki et al. J Biol. Chem. 1996 Sep. 27;271(39):24144-50) on tenascin-W coated wells.

T1 sequence (Q13797 30-1035, chain 1 of 2): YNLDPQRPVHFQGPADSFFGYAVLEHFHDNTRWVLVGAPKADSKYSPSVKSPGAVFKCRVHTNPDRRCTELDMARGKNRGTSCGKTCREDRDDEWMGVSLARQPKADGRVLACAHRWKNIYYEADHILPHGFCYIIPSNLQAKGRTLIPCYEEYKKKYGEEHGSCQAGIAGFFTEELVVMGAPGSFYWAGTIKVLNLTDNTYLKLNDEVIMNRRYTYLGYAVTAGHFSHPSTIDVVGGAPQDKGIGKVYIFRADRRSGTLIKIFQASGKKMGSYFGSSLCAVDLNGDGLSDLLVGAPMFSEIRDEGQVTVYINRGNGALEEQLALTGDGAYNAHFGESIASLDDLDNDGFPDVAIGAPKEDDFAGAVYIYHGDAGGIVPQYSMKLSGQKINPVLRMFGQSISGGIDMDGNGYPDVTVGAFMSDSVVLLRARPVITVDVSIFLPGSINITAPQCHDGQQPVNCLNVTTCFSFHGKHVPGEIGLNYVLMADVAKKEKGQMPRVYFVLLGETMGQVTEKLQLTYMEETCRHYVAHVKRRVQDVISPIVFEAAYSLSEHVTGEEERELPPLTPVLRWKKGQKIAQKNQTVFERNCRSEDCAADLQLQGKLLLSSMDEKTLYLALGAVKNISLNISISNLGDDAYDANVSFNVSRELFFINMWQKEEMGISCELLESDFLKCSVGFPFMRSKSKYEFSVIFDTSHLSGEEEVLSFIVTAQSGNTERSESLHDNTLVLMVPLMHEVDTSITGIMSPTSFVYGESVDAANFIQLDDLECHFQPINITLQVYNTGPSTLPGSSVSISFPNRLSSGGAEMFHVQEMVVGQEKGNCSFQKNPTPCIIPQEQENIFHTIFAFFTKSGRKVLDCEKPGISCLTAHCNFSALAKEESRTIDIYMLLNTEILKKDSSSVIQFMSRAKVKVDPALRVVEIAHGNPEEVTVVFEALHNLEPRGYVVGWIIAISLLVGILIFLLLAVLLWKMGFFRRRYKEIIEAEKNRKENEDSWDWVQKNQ
T1 sequence (P05556 21-798, chain 2 of 2): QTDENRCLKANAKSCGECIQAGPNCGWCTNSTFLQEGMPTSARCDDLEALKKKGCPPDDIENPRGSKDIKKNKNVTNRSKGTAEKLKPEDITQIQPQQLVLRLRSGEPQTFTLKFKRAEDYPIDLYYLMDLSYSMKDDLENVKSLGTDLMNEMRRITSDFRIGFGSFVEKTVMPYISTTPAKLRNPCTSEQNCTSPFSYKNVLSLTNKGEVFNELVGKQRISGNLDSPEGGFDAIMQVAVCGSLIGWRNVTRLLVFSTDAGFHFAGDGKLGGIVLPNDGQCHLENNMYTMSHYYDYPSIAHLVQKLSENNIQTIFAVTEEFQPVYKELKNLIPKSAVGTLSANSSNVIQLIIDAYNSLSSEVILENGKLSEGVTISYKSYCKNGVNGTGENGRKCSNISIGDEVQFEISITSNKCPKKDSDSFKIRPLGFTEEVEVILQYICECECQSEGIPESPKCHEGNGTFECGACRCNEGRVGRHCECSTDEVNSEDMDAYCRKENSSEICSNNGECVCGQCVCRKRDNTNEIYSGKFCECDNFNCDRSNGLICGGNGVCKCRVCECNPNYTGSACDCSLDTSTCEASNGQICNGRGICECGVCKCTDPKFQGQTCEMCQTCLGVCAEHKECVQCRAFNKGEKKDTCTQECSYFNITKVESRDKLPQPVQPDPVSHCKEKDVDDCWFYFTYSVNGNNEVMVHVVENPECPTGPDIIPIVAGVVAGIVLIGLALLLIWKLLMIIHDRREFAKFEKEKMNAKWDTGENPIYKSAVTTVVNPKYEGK

binding result: no binding
B1: purified full-length recombinant mouse tenascin-W (C-terminal 6xHis-tag, secreted from HEK 293 cells) (ligand)
chain: TPESPGCSNKEQQVTVSHTYKIDVPKSALVQVETDPQSLSDDGTSLLAPGEDGEEQNIIFRHNIRLQTPQKNCDLADSVQDLLARMKKLEEEMAELKEQCNTNRCCQGAADLSRHCSGHGTFLPETCSCHCDQGWEGADCDQPTCPGACNGHGRCVDGQCVCDAPYVGVDCAYAACPQDCSGHGVCVQGVCQCHEDFTAEDCSEQRCPGDCSGNGFCDTGECYCEMGFTGPDCSQVVAPQGLQLLKSTENSLLVSWEPSSEVDYYLLSYYPLGKEQATKQVRVPKEQHTYDITGLLPGTKYIVTLRNVKKDISSSPQHLLATTDLAVLGTAWVNEETETSLDVEWENPLTEVDYYKLRYGPLTGQEVTEVTVPKSRDPKSRYDITGLQPGTEYKITVVPIRGDLEGKPILLNGRTEIDGPTNVVTNQVTEDTASVSWDPVRADIDKYVVRYIAPDGETKEKAVPKDQSSTVLTGLKPGEAYKVFVWAERGNQGSKKADTKALTEIDSPENLVTDRVTENSLSVSWDPVEADIDRYVVSYTSVDGETKQVPVKKDQRSTVLTGLSPGVEYKVYVWAEKGDRESKKANTKAPTDIDSPKNLVTDQVTENTLSVSWDPVQANIDRYMVSYTSADGETREVPVPKEKSSTVLTGLRPGVEYKVHVWAQKGTQESRKANTKAPTDIDGPKNLVTDQVTETTLSVSWDPVEADIDRYMVRYTSPDGETKEVPVSKDKSSTVLRGLRPGVEYKVDVWAQKGAQDSRKANTKAPTDIDSPKNLVTEQVAESTATVSWDPVEADIDRYVVRYTSADGETREIPVRKEKSSTVLTGLRPGVEYTVQVWAQKGARESKKAKTKAPTEIDSPKNLVTNRVTENTATISWDPVRANIDRYMVRYTSADGETKEIPVSKDQSNTILTGLKPGMEYTIHVWAQKGARESKKADTKALTEIDPPRNLRPFGVTHSGGVLTWLPPSAQIDGYILTYQFPNGTVKGVELPRGQQRFELQDLEQGVTYPVSLVAFKGNQRSRTVSTTLSTVDARFPHPSDCSQVQQNTNAASGLYTIYLNGDASRPMQVYCDMDTDGGGWIVFQRRNTGQLDFFKRWRSYVEGFGDPMKEFWLGLDKLHNLTTGTTTRYEVRADLQTFNESAYAVYDFFQVASSKERYKLSVGKYRGTAGDALTYHNGWKFTTFDRDSDIALSNCALTHHGGWWYKNCHLANPNGKYGETKHSEGVNWEPWKGHEFSIPYVELKIRPFGYSRDRFSGRKKRSIGKARMFHHHHHH
notes: also called full length mouse tenascin-W protein; purified tenascin-W
